Experimental data: the RNAGym collection of RNA variant scans (doi:10.1073/pnas.2313332121)

B1: TPR t1 (parent)
chain: GACCAAUCUGCCCUCAGAGCUCGAGAACAUCUUCGGAUGCAGAGGAGGCAGGCUUCGGUGGCGCGAUAGCGCCAACGUCCUCAACCUCCAAUGCAUCCCACCACAUGAUGAUGCCUGAAGAGCCUUGGUUUUUUG

Variants of: B1
Experiment: polymerase ribozyme fitness, log enrichment relative to wild type (log ratio); higher = more active; in vitro selection for triplet polymerase activity
Procedure, shortened: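 Genotype fitness is the logarithm of its enrichment divided by wild-type enrichment, using inverse-variance-weighted averages of replicates. That logarithm is base 2. Enrichment was measured by Illumina sequencing of input and output libraries from one triplicate in vitro selection round, with frozen incubation at −7 °C, on PCR-built, transcribed mutant libraries of each subunit of a heterodimeric triplet polymerase ribozyme, retaining genotypes with ≥10 input reads and ≥1 read per output.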

Variant | polymerase ribozyme fitness (log ratio)
GACCAAUCUGCUCUCAGAGCUCGAGAAAAUCUUCGGAUGUAGAGGAGGCAGGCUUCGGUGGCGCGAUAGCGCUAACGUCCUCAACCUCCAAUGCAUCCCACCACAUGAUGAUGCCUGAAGAGCCUUGGUUUUUUG | -4.89
GACCAAUCUGCUUUCAGUGGUCGAGAACAUCUUCGGAUGCAGAGGAGGCAGGCUUCGGUGGCGCGAUAGCGCCAACGUCCUCAACCUCCAAUGCAUCCCACCACAUGAUGAUGCCUGAAGAGCCUUGGUUUUUUG | -4.78
GACCAAUCUGCUCUCAGAGCUCGAGAACAUCUUCGGAUGCAGAGGUGGCAGGCUUCGGUGGCGCGAUAGCGCCAACGUCCUCAACCUCCAAUGCAUCCCACCACAUGAUGAUGCCUGAAGAGCCUUGGUUUUUUG | -0.688
GACCAAUCUGCUCUCAGAGCUCGAGAACAUCUUCGGAUGCAGAGGCGGCAGGCUUCGGUGGCGCGAUAGCGCCAUCGUCCUCAACCUCCAAUGCAUCCCACCACAUGAUGAUGCCUGAAGAGCCUUGGUUUUUUG | -0.187
GACCAAUCUGCUCUCAGAGCUCGAGAACAUCUUCGGAUGCAGAGGCGGCAGGGUUCGGUGGCGCGAUAGCGUGAACGUCCUCACCCUCCAAUGCCUCCCACCACAUGAUGAUGCCUGAAGAGCCUUGGUUUUUUG | -5.01
GACCAAUCUGCUCUCAGAGCUCGAGAACAUCUUCGGAUGCAGAGGAGGCUGGCUUCGGGGGCGCGAUAGCGCCAACGUCCUCAACCUCCAAUGCAUCCCACCACAUGAUGAUGCCUGAUGAGCCUUGGUUUUUUG | -0.98
GACCAAUCUGCUCUCAGAGCUCGAGAACAUCUUCGGAUGCAGAGGAGGCGGGCUUAGGUGGCGCGAUAGCGCCAACGUCCUCAAGCUCCAAUGCAUCCCACCACAUGAUGAUGCCUGAAGAGCCUUGGUUUUUUG | -1.73
GACCAAUCUGCUCUCAGAGCUCGAGAACAUCUUCGGAUGCAGAGGUGGCAGGCUUCGGUGGCGCGAUAGCGCCAACGUCCUCAACCUCCAAUGCAUCCCACCACAUGAUGAUGCCUGAAGCGCCUUGGUUUUUUG | -0.0492
GACCAAUCUGCUCUCAGAGGUCGAGAACAUCUUCGGAUGCAGCGGAGACAGGCUUCGGUGGCGCGAUAGCGCCAACGUCCUCAACCUCCAAUGCAUCCCACCACAUGAUGAUGCCUGAAGAGCCUUGGUUUUUUG | -5.39
GACCAAUCUGCUCUCAGAGCUCGAGGACAUCUUCGGAUGCAGAGAAGGCAGGCUUCGGUGGCGCGAUAGCGCCAACGUCCUCAUCCUCCAAUGCAUCCCACCACAUGAUGAUGCCUGAAGAGCCUUGGUUUCUUG | -3.75
GACCAAUCUGCUCUCAGAGCUCGAGAACAUCUUCGGAUGCAGAGGAGGCAGGCUUCGGUGGCGCGAUAGCGCCAACGUCCUCAACCUCCAAUGCAUCCCACCUCAUGAUGAUGCCUGAAGAGCCUUGGUUUUUUG | -4.81
GACCAAUCUGCUCUCAGAGCUCGAGAACAUCUUCGGAUGCAGAGGAGGCAGGCUUCGGUGGCGCGAUAGCGCCAGCGUCCUCAACCUCCAAAGCAUCCCACCACAUGAUGAUGCCUGAAGAGCCUUGGUUUUUUG | -2.45
GACCAAUCUGCUCUCAGAGCUCGAGAACAUCUUCGGAUGCCGAGGAGGCAGGCUUCGGUCGCGCGAUAGCGCCAACGUCCUCAACCUCCAAUGCAUCCCACCACAUGAUGAUGCCUGAAGAGCCUUGCUUUUUUG | -3.6
GACCAAUCUGCUCUCAGAGCUCGAGAACAUCUUCGGAUGCAGAGGUGGCAUGCUUCGGUGGCGCGAUAUCGCCUACGUCCUCAACCUCCAAUGCAUCCCACCACAUGAUGAUGCCUGAAGAGCCUUGGUUUUUUG | -3.04
GACCAAUCUGCUCUUAGAGCUCGAGAACAUCUUCGGAUGCAGAGGCAGCAGGCUUCGGUGGCGCGAUACCGCCAACGUCCUCAACCUCCAAUGCAUCCCGUCACAUGAUGAUUCCUGAAGAGGCUUGGUUUUUUG | -7.1
GACCAAUCUGCUCUCAGAGCUCGAGAAUAUCUUCGGAUGCAGAGGAGGUAGGCUUCGGUGGCGCGAUAGCGCCAACGUCCUAAACCUCCAAUGCAUCCCACCACAUGAUGAUGCCUGAAGAGCCUUGGUUUUUUG | -3.01
GACCAAUCUGCUCUCAGAGCUCGAGAACAUCUUCGGAUGCAGAGGGGGCAGGCUUCGGUGGAGCGACAGCGCCAACGUCCUCAACCUCCAAUGCAUCCCACCACAUGAUGAAGCCUGAAGAGCCUUGGGUUUUUG | -4.48
GACCAAUCUGCUCUAAGAGCUCGAGAACAUCUUCGGCUGCAGAGGAGGCAGUCUUCGGUGGCGCGAUAGCGCCAACGUCCUCAACCUCCAAUGCAUCCCACCACAUGAUGAUGCCGGAAGAGCCUUGGUUUUUUG | -3.09
GACCAAUCUGCUCUCAGAGCUCGAGAACAUCUUCGGAUGCAGAGGAGGCAGGCUUCGGUGGCGCGAUAGCGCCAACGUCCUCCACCUCCAAUACAUCCCACCACAUGAUGAUGCCUGAAGAGCCUUGGUUUUUUG | -0.192
GACCAAUCUGCUCUCAGAGCUCGAGAACAUCUUCGGAUGCAGAGGUGGCAUGCUUCGGUAGCGCGAUAGCGCCAACGUCCUCAACCUCCAAUGCAUCCCACCACAUGAUGAUGCCUGAAGAGCCUUGGUUUUUUG | -3.42
GACCAAUCUGCUCUCAGAGCUCGAGAACAUCUUCGGAUGCAGAGGAGGCAGGAUUCGCUGGCGCGAUAGCGCCAACGUCCUGAACCUCCAAUGCAUCCCACCACAUGAUGAUGCCUGAAGAGCCUUGAUUUUUUG | -2.46
